Among the data in US7413870B2, “SAK: modulation of cellular proliferation for treatment of cancer” (Rigel Pharmaceuticals, Incorporated, priority 2001, dated 2008) are antiproliferative effect and antiproliferative activity values, retold here.

Experiment [1] deals with CHO cells. The note with it: overexpression in CHO cells; cited from earlier work.
In experiment [2] the test system is normal cells. Put plainly: antiproliferative effect of SAK wild type/mutants in normal cells (GFP positivity, cell tracker). The format is cell-based.
Experiment [3] relates to H1299 cells. Put plainly: antiproliferative effect of SAK mutant in H1299 cells. The format is cell-based.

Substitutions are numbered along the chain they refer to. In names and notes the source's numbering stands. Where two headings read alike, the source gives them in different places.

B1: wild type mouse SAK: wild type mouse SAK overexpressed in CHO cells, from cited U.S. patents (protein, UniProt Q64702 1-925, looked up)
Serine/threonine-protein …: MAACIGERIEDFKVGNLLGKGSFAGVYRAESIHTGLEVAIKMIDKKAMYKAGMVQRVQNEVKIHCQLKHPSVLELYNYFEDNNYVYLVLEMCHNGEMNRYLKNRMKPFSEREARHFMHQIITGMLYLHSHGILHRDLTLSNILLTRNMNIKIADFGLATQLNMPHEKHYTLCGTPNYISPEIATRSAHGLESDIWSLGCMFYTLLIGRPPFDTDTVKNTLNKVVLADYEMPAFLSREAQDLIHQLLRRNPADRLSLSSVLDHPFMSRNPSPKSKDVGTVEDSMDSGHATLSTTITASSGTSLSGSLLDRRLLVGQPLPNKITVFQKNKNSSDFSSGDGSNFCTQWGNPEQEANSRGRGRVIEDAEERPHSRYLRRAHSSDRASPSNQSRAKTYSVERCHSVEMLSKPRRSLDENQHSSNHHCLGKTPFPFADQTPQMEMVQQWFGNLQMNAHLGETNEHHTVSPNRDFQDYPDLQDTLRNAWTDTRASKNADTSANVHAVKQLSAMKYMSAHHHKPEVMPQEPGLHPHSEQSKNRSMESTLGYQKPTLRSITSPLIAHRLKPIRQKTKKAVVSILDSEEVCVELLRECASEGYVKEVLQISSDGTMITVYYPNDGRGFPLADRPPLPTDNISRYSFDNLPEKYWRKYQYASRFIQLVRSKTPKITYFTRYAKCILMENSPGADFEVWFYDGAKIHKTENLIHIIEKTGISYNLKNENEVTSLKEEVKVYMDHANEGHRICLSLESVISEEEKRSRGSSFFPIIVGRKPGNTSSPKALSAPPVDPSCCKGEQASASRLSVNSAAFPTQSPGLSPSTVTVEGLGHTATATGTGVSSSLPKSAQLLKSVFVKNVGWATQLTSGAVWVQFNDGSQLVVQAGVSSISYTSPDGQTTRYGENEKLPEYIKQKLQCLSSILLMFSNPTPNFQ
As to B1, the antiproliferative effect entry in experiment [1] is reported as “antiproliferative”.

B2: SAK wild type: wild type human SAK serine/threonine kinase (SEQ ID NO:2), overexpressed in cells (protein, UniProt O00444 1-970, looked up)
Serine/threonine-protein …: MATCIGEKIEDFKVGNLLGKGSFAGVYRAESIHTGLEVAIKMIDKKAMYKAGMVQRVQNEVKIHCQLKHPSILELYNYFEDSNYVYLVLEMCHNGEMNRYLKNRVKPFSENEARHFMHQIITGMLYLHSHGILHRDLTLSNLLLTRNMNIKIADFGLATQLKMPHEKHYTLCGTPNYISPEIATRSAHGLESDVWSLGCMFYTLLIGRPPFDTDTVKNTLNKVVLADYEMPSFLSIEAKDLIHQLLRRNPADRLSLSSVLDHPFMSRNSSTKSKDLGTVEDSIDSGHATISTAITASSSTSISGSLFDKRRLLIGQPLPNKMTVFPKNKSSTDFSSSGDGNSFYTQWGNQETSNSGRGRVIQDAEERPHSRYLRRAYSSDRSGTSNSQSQAKTYTMERCHSAEMLSVSKRSGGGENEERYSPTDNNANIFNFFKEKTSSSSGSFERPDNNQALSNHLCPGKTPFPFADPTPQTETVQQWFGNLQINAHLRKTTEYDSISPNRDFQGHPDLQKDTSKNAWTDTKVKKNSDASDNAHSVKQQNTMKYMTALHSKPEIIQQECVFGSDPLSEQSKTRGMEPPWGYQNRTLRSITSPLVAHRLKPIRQKTKKAVVSILDSEEVCVELVKEYASQEYVKEVLQISSDGNTITIYYPNGGRGFPLADRPPSPTDNISRYSFDNLPEKYWRKYQYASRFVQLVRSKSPKITYFTRYAKCILMENSPGADFEVWFYDGVKIHKTEDFIQVIEKTGKSYTLKSESEVNSLKEEIKMYMDHANEGHRICLALESIISEEERKTRSAPFFPIIIGRKPGSTSSPKALSPPPSVDSNYPTRERASFNRMVMHSAASPTQAPILNPSMVTNEGLGLTTTASGTDISSNSLKDCLPKSAQLLKSVFVKNVGWATQLTSGAVWVQFNDGSQLVVQAGVSSISYTSPNGQTTRYGENEKLPDYIKQKLQCLSSILLMFSNPTPNFH
For the molecule B2, the antiproliferative activity entry in experiment [2] was “do not have significant antiproliferative activity”; in experiment [2] (listed as wild type SAK) it was “neither wild type nor mutant SAK is antiproliferative”. For the same molecule, the antiproliferative effect entry in experiment [2] (GFP positivity studies) was “no antiproliferative effect”.

B3: SAK K41M mutant: mutant SAK (K41M) serine/threonine kinase, overexpressed in cells in dominant negative studies (protein, UniProt O00444 1-970, looked up, variant K41M)
Serine/threonine-protein …: B2 Serine/threonine-protein … with K41M
B3: in experiment [3], the antiproliferative effect entry is recorded as “weak antiproliferative effect”. Also, the antiproliferative activity result in experiment [2] is “does not have strong antiproliferative effects”.
